Measured values taken from publication PMC3314626, “Crystal Structures of the Tetratricopeptide Repeat Domains of Kinesin Light Chains: Insight into Cargo Recognition Mechanisms” (PLoS ONE, 2012).

Molecular target: T1, KLC2-TPR S328N mutant (human, UniProt Q9H0B6-1 217-480, S328N)
T1 construct: kinesin light chain 2 (KLC2), human, TPR domain, residues 217-480 of GenBank NP_073733, with S328N; made from the KLC2-TPR construct with a QuickChange kit; also called KLC2-S328N; not shown: His6 (from the vector pET28-LIC, modified)
Experiment: ITC; peptide (1-3 mM) in the syringe injected into 60-130 uM KLC1-TPR or KLC2-TPR (or mutant) in the cell; 25 C; 20 mM Bis-Tris pH 6.5, 500 mM NaCl, 0.5 mM TCEP; one-site binding model
Conditions: both partners purified

T1 sequence (Q9H0B6 217-480 S328N): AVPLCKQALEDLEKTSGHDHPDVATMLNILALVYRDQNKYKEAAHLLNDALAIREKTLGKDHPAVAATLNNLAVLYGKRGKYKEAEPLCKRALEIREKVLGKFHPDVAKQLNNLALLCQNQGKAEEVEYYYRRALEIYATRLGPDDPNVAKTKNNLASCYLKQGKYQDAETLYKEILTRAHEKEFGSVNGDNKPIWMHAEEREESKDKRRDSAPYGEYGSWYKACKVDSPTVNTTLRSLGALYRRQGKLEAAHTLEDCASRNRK

B1: JIP1 peptide (C-terminal residues of JNK-interacting protein 1) (peptide)
peptide: Ac-EYTCPTEDIYLE-OH
notes: also called JIP peptide; source: synthetic peptide (Tufts University Core Facility)
Kd: 18.7 µM | dH: -66.5 kJ/mol | stoichiometry N: 1.18
